From patent US20170037111A1, “Novel peptides and combination of peptides for use in immunotherapy against ovarian cancer and other cancers” (immatics biotechnologies GmbH, priority 2015, published 2017)

Biological target: HLA-A*02:01 (Homo sapiens, UniProt P04439, D140Y/D185E/D98H/E176V/E277Q/G131W/G231S/I119V/I121R/I166T/I218V/L300P/L318F/N151K/N90K/P208A/P217A/Q86G/Q94H/R138H/R169H/T345S)
Experiment: MHC binding assay (UV-ligand exchange, β2m ELISA, peptide exchange yield)
Settings: MHC class I binding score; binding to HLA-A*02:01 ranged by peptide exchange yield (UV-ligand exchange, β2m ELISA)
Source text: Candidate peptides for T cell based therapies according to the present invention were further tested for their MHC binding capacity (affinity). The individual peptide-MHC complexes were produced by UV-ligand exchange, where a UV-sensitive peptide is cleaved upon UV-irradiation, and exchanged with the peptide of interest as analyzed. Only peptide candidates that can effectively bind and stabilize the peptide-receptive MHC molecules prevent dissociation of the MHC complexes. To determine the yield of the exchange reaction, an ELISA was performed based on the detection of the light chain (β2m) of stabilized MHC complexes. The assay was performed as generally described in Rodenko et al. (Rodenko et al., 2006).
96 well MAXISorp plates (NUNC) were coated over night with 2 ug/ml streptavidin in PBS at room temperature, washed 4× and blocked for 1h at 37° C. in 2% BSA containing blocking buffer. […] Peptide-MHC monomers of the UV-exchange reaction were diluted 100 fold in blocking buffer. Samples were incubated for 1h at 37° C., washed four times, incubated with 2 ug/ml HRP conjugated anti-β2m for 1h at 37° C., washed again and detected with TMB solution that is stopped with […]. Absorption was measured at 450 nm. Candidate peptides that show a high exchange yield (preferably higher than 50%, most preferred higher than 75%) are generally preferred for a generation and production of antibodies or fragments thereof, and/or T cell receptors or fragments thereof, as they show sufficient avidity to the MHC molecules and prevent dissociation of the MHC complexes.

| Peptide exchange | Substance |
| --- | --- |
| ″+++″ (≧50% = +++) | 1 (SLMEPPAVLLL; listed as Homo sapiens) [compound 1] |
| ″++++″ (≧75% = ++++) | 4 (GIMEHITKI; listed as Homo sapiens) [compound 4] |
| ″+++″ (≧50% = +++) | 6 (VLVSDGVHSV; listed as Homo sapiens) [compound 6] |
| ″++″ (≧20% = ++) | 9 (GAAKDLPGV; listed as Homo sapiens) [compound 9] |
| ″++++″ (≧75% = ++++) | 10 (FLATFPLAAV; listed as Homo sapiens) [compound 10] |
| ″+++″ (≧50% = +++) | 12 (SLWPDPMEV; listed as Homo sapiens) [compound 12] |
| ″+++″ (≧50% = +++) | 13 (YLMDESLNL; listed as Homo sapiens) [compound 13] |
| ″+++″ (≧50% = +++) | 14 (AAYGGLNEKSFV; listed as Homo sapiens) [compound 14] |
| ″++″ (≧20% = ++) | 15 (VLLTFKIFL; listed as Homo sapiens) [compound 15] |
| ″+++″ (≧50% = +++) | 16 (VLFQGQASL; listed as Homo sapiens) [compound 16] |
| ″++″ (≧20% = ++) | 18 (YLVAKLVEV; listed as Homo sapiens) [compound 18] |
| ″+++″ (≧50% = +++) | 20 (RMIEYFIDV; listed as Homo sapiens) [compound 20] |
| ″++″ (≧20% = ++) | 21 (VLDELDMEL; listed as Homo sapiens) [compound 21] |
| ″+++″ (≧50% = +++) | 22 (IMEENPGIFAV; listed as Homo sapiens) [compound 22] |
| ″+++″ (≧50% = +++) | 23 (VLLDDIFAQL; listed as Homo sapiens) [compound 23] |
| ″++″ (≧20% = ++) | 24 (SLSDGLEEV; listed as Homo sapiens) [compound 24] |
| ″+++″ (≧50% = +++) | 25 (FLPDEPYIKV; listed as Homo sapiens) [compound 25] |
| ″+++″ (≧50% = +++) | 26 (ALLELAEEL; listed as Homo sapiens) [compound 26] |
| ″+++″ (≧50% = +++) | 27 (ILADIVISA; listed as Homo sapiens) [compound 27] |
| ″+++″ (≧50% = +++) | 28 (QLLDETSAITL; listed as Homo sapiens) [compound 28] |
| ″+++″ (≧50% = +++) | 29 (KMLGIPISNILMV; listed as Homo sapiens) [compound 29] |
| ″+++″ (≧50% = +++) | 30 (LILDWVPYI; listed as Homo sapiens) [compound 30] |
| ″++″ (≧20% = ++) | 31 (YLAPELFVNV; listed as Homo sapiens) [compound 31] |
| ″++″ (≧20% = ++) | 32 (KLDDLTQDLTV; listed as Homo sapiens) [compound 32] |
| ″++″ (≧20% = ++) | 33 (VLLSLLEKV; listed as Homo sapiens) [compound 33] |

| Peptide exchange | Substance |
| --- | --- |
| ″+++″ (≧50% = +++) | 34 (ILVEADSLWVV; listed as Homo sapiens) [compound 34] |
| ″+++″ (≧50% = +++) | 35 (KINDTIYEV; listed as Homo sapiens) [compound 35] |
| ″+++″ (≧50% = +++) | 39 (SVAPNLPAV; listed as Homo sapiens) [compound 39] |
| ″+++″ (≧50% = +++) | 41 (SLMPHIPGL; listed as Homo sapiens) [compound 41] |
| ″+++″ (≧50% = +++) | 42 (VLLQKIVSA; listed as Homo sapiens) [compound 42] |
| ″++″ (≧20% = ++) | 43 (VLSSLEINI; listed as Homo sapiens) [compound 43] |
| ″++″ (≧20% = ++) | 44 (ILDPISSGFLL; listed as Homo sapiens) [compound 44] |
| ″+++″ (≧50% = +++) | 45 (SLWQDIPDV; listed as Homo sapiens) [compound 45] |
| ″+++″ (≧50% = +++) | 46 (ILTEENIHL; listed as Homo sapiens) [compound 46] |
| ″++″ (≧20% = ++) | 47 (ILLSVPLLVV; listed as Homo sapiens) [compound 47] |
| ″+++″ (≧50% = +++) | 50 (SLSELEALM; listed as Homo sapiens) [compound 50] |
| ″++++″ (≧75% = ++++) | 51 (LLPDLEFYV; listed as Homo sapiens) [compound 51] |
| ″++++″ (≧75% = ++++) | 52 (FLLAHGLGFLL; listed as Homo sapiens) [compound 52] |
| ″++++″ (≧75% = ++++) | 53 (KMIETDILQKV; listed as Homo sapiens) [compound 53] |
| ″+++″ (≧50% = +++) | 54 (SLLEQGKEPWMV; listed as Homo sapiens) [compound 54] |
| ″++++″ (≧75% = ++++) | 55 (SLLDLETLSL; listed as Homo sapiens) [compound 55] |
| ″+++″ (≧50% = +++) | 57 (TLAELQPPVQL; listed as Homo sapiens) [compound 57] |
| ″+++″ (≧50% = +++) | 59 (IMEDIILTL; listed as Homo sapiens) [compound 59] |
| ″++++″ (≧75% = ++++) | 62 (VLLDVSAGQLLM; listed as Homo sapiens) [compound 62] |
| ″++″ (≧20% = ++) | 63 (YLLPSGGSVTL; listed as Homo sapiens) [compound 63] |
| ″++″ (≧20% = ++) | 64 (YAAPGGLIGV; listed as Homo sapiens) [compound 64] |
| ″+++″ (≧50% = +++) | 66 (FLDENIGGVAV; listed as Homo sapiens) [compound 66] |
| ″+++″ (≧50% = +++) | 67 (TLLAEALVTV; listed as Homo sapiens) [compound 67] |
| ″++++″ (≧75% = ++++) | 68 (SLMELPRGLFL; listed as Homo sapiens) [compound 68] |
| ″+++″ (≧50% = +++) | 69 (FQLDPSSGVLVTV; listed as Homo sapiens) [compound 69] |

| Peptide exchange | Substance |
| --- | --- |
| ″+++″ (≧50% = +++) | 70 (GLLDYPVGV; listed as Homo sapiens) [compound 70] |
| ″+++″ (≧50% = +++) | 71 (GILARIASV; listed as Homo sapiens) [compound 71] |
| ″+++″ (≧50% = +++) | 72 (SLLELDGINL; listed as Homo sapiens) [compound 72] |
| ″+++″ (≧50% = +++) | 73 (NIFDLQIYV; listed as Homo sapiens) [compound 73] |
| ″+++″ (≧50% = +++) | 74 (ALLDPEVLSIFV; listed as Homo sapiens) [compound 74] |
| ″+++″ (≧50% = +++) | 75 (GLLEVMVNL; listed as Homo sapiens) [compound 75] |
| ″+++″ (≧50% = +++) | 76 (ILIDSIYKV; listed as Homo sapiens) [compound 76] |
| ″++++″ (≧75% = ++++) | 77 (ILVEADGAWVV; listed as Homo sapiens) [compound 77] |
| ″+++″ (≧50% = +++) | 78 (SLFSSLEPQIQPV; listed as Homo sapiens) [compound 78] |
| ″++″ (≧20% = ++) | 80 (FLYDNLVESL; listed as Homo sapiens) [compound 80] |
| ″++″ (≧20% = ++) | 81 (FLFSQLQYL; listed as Homo sapiens) [compound 81] |
| ″+++″ (≧50% = +++) | 82 (FLSSVTYNL; listed as Homo sapiens) [compound 82] |
| ″+++″ (≧50% = +++) | 83 (ILAPTVMMI; listed as Homo sapiens) [compound 83] |
| ″++″ (≧20% = ++) | 84 (VTFGEKLLGV; listed as Homo sapiens) [compound 84] |
| ″+++″ (≧50% = +++) | 85 (KMSELRVTL; listed as Homo sapiens) [compound 85] |
| ″+++″ (≧50% = +++) | 86 (NLIGKIENV; listed as Homo sapiens) [compound 86] |
| ″++″ (≧20% = ++) | 87 (ALPEAPAPLLPHIT; listed as Homo sapiens) [compound 87] |
| ″+++″ (≧50% = +++) | 88 (FLLVGDLMAV; listed as Homo sapiens) [compound 88] |
| ″++++″ (≧75% = ++++) | 89 (YILPTETIYV; listed as Homo sapiens) [compound 89] |
| ″+++″ (≧50% = +++) | 90 (TLLQIIETV; listed as Homo sapiens) [compound 90] |
| ″++++″ (≧75% = ++++) | 91 (IMQDFPAEIFL; listed as Homo sapiens) [compound 91] |
| ″++″ (≧20% = ++) | 92 (YLIPFTGIVGL; listed as Homo sapiens) [compound 92] |
| ″++″ (≧20% = ++) | 93 (LLQAIKLYL; listed as Homo sapiens) [compound 93] |
